According to patent US20140302063A1 (SECRETARY OF STATE FOR HEALTH, published 2014):

B1: R2b-D8 (VHH)
VHH: QVQLVESGGGLVQPGGSLRLSCAASGFTFSWYDVGWYRRAPGKERELVADIASTRGTTNYADSVKGRFTISRDNAKNSVYLQMNSLKPEDTAVYYCNTRRDWRDYWGQGIQVTVSS
B2: R1a-C5 (VHH)
VHH: QVQLVESGGGLVQPGGSLRLSCAASNDIFSFYTMGWYLQAIGKQREPVAVIGNGGNTNYAESVKGRFTISRDGAKNTAYLQMNSLKPEDTAVYYCMASGPGGLNVWGQGTQVTVSS
B3: R1a-A5 (VHH)
VHH: QVQLVESGGGLVQPGGSLRLSCSASGSAVLFSTYPMSWYRQAPGKQRELVAAVTTDGSTSYADYAKGRFTISRDNAKNTVYLQMNSLKPEDTAVYYCNARDGFFNRYDYWGQGTQVTVSS
B4: R1a-G6 (VHH)
VHH: QVQLVESGGGLVQSGGSLRLSCAASGSMSRIITMGWYRQAPGMERELVAVIGNNDNTVYGDSVQGRFTVSRDNAKNTAYLQMNSLNAEDTAMYYCKISTLTPPHEYWGQGTQVTVSS
B5: R1a-H6 (VHH)
VHH: QVQLVESGGGLVQAGDSLRLSCTASVLTFSLYRVGWFRQAPGKEREFVAAIDWGDGPTTYADSVKGRFTISRDNAERTAYLQINSLKPEDTAVYYCGAGNTGSSDRSSSYVHWGQGTQVTVSS
B6: R2a-G9 (VHH)
VHH: QVQLVESGGGLVQPGGSLRLSCAASDNIFSFYTMGWYRQSPGKERELVAVIGNGGNTNYADSVKGRFTISRDNGKNKAHLQMNSLKPEDTAVYYCKASGPGGVEVWGQGTQVTVSS
B7: R2a-F9 (VHH)
VHH: QVQLVESGGGLVQPGGSLRLSCSASGSISSIVTMGWYRQAPGKERELVAVIGNYGNTNYADSVKGRFTVSRDNAKNTVYLQMNSLNVEDTAMYVCKFSSTVAPHEYWGQGTQVTVSS
B8: R1a-F5 (VHH)
VHH: QLQLVESGGGLVQVGGSLRLSCAASGFPFDGYAIAWFRQAPGKEREGVSCRASDGNTYYAESLKGRLTMSTDNAKNTVYLQMNSLKPEDTAVYYCAAASWVASLWSPSEYDYWGQGTQVTVSS
B9: R1a-B6 (VHH)
VHH: QVQLVESGGGLVQPGGSLRLSCAASGSFFSRYRMGWYRQAPGEQRELVASIAYDGSTSYADPVKGRFTISRDNANTVHLQMYSLKPDDTAVYYCNLDPPGILYWGQGTQVTVSS
B10: R2b-D9 (VHH)
VHH: QVQLVESGGGLVQPGGSLRLSCLASGSAFSLYTMGWYRQAPGNQRELVAAITSGESTNYADSVKGRFTISRDNAKNTVYLQMNSLKPEDTAVYYCNADPLSTGWGQYSYWGQGTQVTVSS
B11: R2a-G8 (VHH)
VHH: QLQLAESGGGLVQAGGSLRLSCAASGSTLNNNAIGWFRQAPGKEREGVSCMNSRDGTTNYADSVKGRFTISRDVAKNTVYLQMNSLKPEDTAVYFCAVKGFAPFLIGCPWGKAEYDYWGQGTQVTVSS
B12: R1a-G5 (VHH)
VHH: QLQLVESGGGLVQPGGSLRLSCAASGSISRIVTMGWYRQASGKERELVAVIGNYGNTNYADSVKGRFTVSRDNAKDTAYLQMNGLNVEDTAIYYCKTSTTTPPYEYWGQGTQVTVSS
B13: R1a-F4 (VHH)
VHH: QVQLVESGGGLVQPGGSLRLSCAASGSISRIVTMGWYRQGPGKERELVAVIGNYGNTNYADSVKGRFTVSRDNAKDTAYLQMNNLNVEDTAMYYCKCSTTTPPHEFWGQGTQVTVSS
B14: R2a-H9 (VHH)
VHH: QVQLVESGGGLVQPGGSLRLSCAASTNIASFYTMGWYRQTPGQQRDVVAVIGNGGNTNYADSVKGRFTISRDGAKNTAHLQMNSLKPEDTDVYYCKASGPGGVILWGQGTQVTVSS
B15: R2a-B9 (VHH)
VHH: QVQLVESGGGLVQPGGSLRLSCAASGSAFSINAMGWYRQAPGEEREFVAAITAGGNTYYADSAKARFTISRDNAKNMLYLQMNSLKPEDTAMYYCAATKAFGIATITADYELWGQGTQVTVSS
B16: R2a-E8 (VHH)
VHH: QLQLVESGGGLVQPGGSLRLSCTASGDIFVMYMIDWYRQAPGKQRELVASIDGRGTPMYADSVKGRFTISRDNAKNTVYLQMNSLKPEDTAVYSCHAKSPLVDNEYWGQGTQVTVSS
B17: R2b-E8 (VHH)
VHH: QVQLVESGGGLVQPGGSLRLSCAASGSFFSRYRMGWYRQAPGEQRELVAGITYDDSTNYAGSVKGRFTISRDNAKNTVHLQMNSLKPEDTAVYYCNLNPPGNLYWGQGTQVTVSS
B18: R1a-E6 (VHH)
VHH: QVQLVESGGGLVQPGGSLRLSCAASGFTLGAYAIAWFRQAPGKEREGVSCISPSDSFTEYGDSVKGRFTVSRDNAKNTVYLQMNSLQPEDTAVYYCAADPVCTAGWYRPSRFDLWGQGTQVTVSS
B19: R1a-E5 (VHH)
VHH: QLQLVESGGGLVQPGGSLRLSCTASGFSLDNYAIGWFRRAPGEEREGVSFITSTSAVTKYADSVKGRFTISRDNAKNTVYLQMTSLKPEDTAVYYCAGTRWVPTMKADEYNYWGQGTQVTVSS

Columns and labels:
[1] = target: A/Brisbane/59/2007 (H1N1-like) inactivated viral preparation (Influenza A virus A/Brisbane/59/2007 (H1N1-like)); experiment: ELISA, inactivated virus
[2] = target: A/California/7/2009 (H1N1) inactivated viral preparation (Influenza A virus A/California/7/2009 (H1N1)); experiment: ELISA, inactivated virus

Row | Binder | EC50 [1] [mg/L] | EC50 [2] [mg/L]
1 | B1 | 14.8 | 
2 | B2 | 3.3 | 1.71
3 | B3 | 0.38 | 0.31
4 | B4 |  | 0.3
5 | B5 |  | 3.85
6 | B6 |  | 0.3
7 | B7 |  | 0.19
8 | B8 | 0.7 | 0.55
9 | B9 | 0.58 | 0.39
10 | B10 | 0.8 | 0.9
11 | B11 | 1.86 | 4.11
12 | B12 | 0.29 | 1.73
13 | B13 |  | 0.79
14 | B14 |  | 0.97
15 | B15 | 9.84 | 1
16 | B16 | 1.42 | 0.51
17 | B17 | 18.4 | 3.64
18 | B18 |  | 2.46
19 | B19 |  | 3.23
